B1: Protein RD3 (Homo sapiens), Q7Z3Z2 (parent)
chain: MSLISWLRWNEAPSRLSTRSPAEMVLETLMMELTGQMREAERQQRERSNAVRKVCTGVDYSWLASTPRSTYDLSPIERLQLEDVCVKIHPSYCGPAILRFRQLLAEQEPEVQEVSQLFRSVLQEVLERMKQEEEAHKLTRQWSLRPRGSLATFKTRARISPFASDIRTISEDVERDTPPPLRSWSMPEFRAPKAD
B2: Notch homolog 2 N-terminal-like protein A (Homo sapiens), Q7Z3S9 (parent)
chain: MCVTYHNGTGYCKCPEGFLGEYCQHRDPCEKNRCQNGGTCVAQAMLGKATCRCASGFTGEDCQYSTSHPCFVSRPCLNGGTCHMLSRDTYECTCQVGFTGKECQWTDACLSHPCANGSTCTTVANQFSCKCLTGFTGQKCETDVNECDIPGHCQHGGTCLNLPGSYQCQCLQGFTGQYCDSLYVPCAPSPCVNGGTCRQTGDFTFECNCLPETVRRGTELWERDREVWNGKEHDEN
partner: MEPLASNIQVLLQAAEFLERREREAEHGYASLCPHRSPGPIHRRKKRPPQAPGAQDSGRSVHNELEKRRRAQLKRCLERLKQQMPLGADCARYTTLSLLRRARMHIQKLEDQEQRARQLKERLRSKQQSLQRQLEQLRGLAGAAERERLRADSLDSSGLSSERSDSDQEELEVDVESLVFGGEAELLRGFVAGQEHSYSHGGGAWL
B3: Low-density lipoprotein receptor class A domain-containing protein 1 (Homo sapiens), Q5T700 (parent)
chain: MNKVFPQGENGYTAAESKAHPGGEAGGGHLCCSRRGACLSASLLLLLATVAALIALVTILGLPSCTPGAQACITLTNRTGFLCHDQRSCIPASGVCDGVRTCTHGEDEDESLCRDVPQSLPHFLVAHCGDPASWIYSDQKCDGTNNCGDCSDELSPVTVCPPCGPGWWRCPSTFFKYCDCIPRHLCRDHVQHCSDWSDEYACPGP
partner: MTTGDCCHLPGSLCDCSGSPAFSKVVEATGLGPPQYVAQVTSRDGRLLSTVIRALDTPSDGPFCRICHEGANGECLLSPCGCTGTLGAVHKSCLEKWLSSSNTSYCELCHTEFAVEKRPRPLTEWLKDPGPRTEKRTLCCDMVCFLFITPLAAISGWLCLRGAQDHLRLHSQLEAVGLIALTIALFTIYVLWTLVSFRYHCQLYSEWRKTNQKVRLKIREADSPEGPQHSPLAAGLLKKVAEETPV
B4: Zinc finger protein Aiolos (Homo sapiens), Q9UKT9 (parent)
chain: MEDIQTNAELKSTQEQSVPAESAAVLNDYSLTKSHEMENVDSGEGPANEDEDIGDDSMKVKDEYSERDENVLKSEPMGNAEEPEIPYSYSREYNEYENIKLERHVVSFDSSRPTSGKMNCDVCGLSCISFNVLMVHKRSHTGERPFQCNQCGASFTQKGNLLRHIKLHTGEKPFKCHLCNYACQRRDALTGHLRTHSVEKPYKCEFCGRSYKQRSSLEEHKERCRTFLQSTDPGDTASAEARHIKAEMGSERALVLDRLASNVAKRKSSMPQKFIGEKRHCFDVNYNSSYMYEKESELIQTRMMDQAINNAISYLGAEALRPLVQTPPAPTSEMVPVISSMYPIALTRAEMSNGAPQELEKKSIHLPEKSVPSERGLSPNNSGHDSTDTDSNHEERQNHIYQQNHMVLSRARNGMPLLKEVPRSYELLKPPPICPRDSVKVINKEGEVMDVYRCDHCRVLFLDYVMFTIHMGCHGFRDPFECNMCGYRSHDRYEFSSHIARGEHRALLK
partner: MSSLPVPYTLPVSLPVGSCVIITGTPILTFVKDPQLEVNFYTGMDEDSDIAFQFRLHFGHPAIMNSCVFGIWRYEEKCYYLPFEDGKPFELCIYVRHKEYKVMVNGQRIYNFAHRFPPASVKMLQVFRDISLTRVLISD
B5: Isoform 1 of Segment polarity protein dishevelled homolog DVL-3 (Homo sapiens), Q92997-1 (parent)
chain: MGETKIIYHLDGQETPYLVKLPLPAERVTLADFKGVLQRPSYKFFFKSMDDDFGVVKEEISDDNAKLPCFNGRVVSWLVSAEGSHPDPAPFCADNPSELPPPMERTGGIGDSRPPSFHPHAGGGSQENLDNDTETDSLVSAQRERPRRRDGPEHATRLNGTAKGERRREPGGYDSSSTLMSSELETTSFFDSDEDDSTSRFSSSTEQSSASRLMRRHKRRRRKQKVSRIERSSSFSSITDSTMSLNIITVTLNMEKYNFLGISIVGQSNERGDGGIYIGSIMKGGAVAADGRIEPGDMLLQVNEINFENMSNDDAVRVLREIVHKPGPITLTVAKCWDPSPRGCFTLPRSEPIRPIDPAAWVSHTAAMTGTFPAYGMSPSLSTITSTSSSITSSIPDTERLDDFHLSIHSDMAAIVKAMASPESGLEVRDRMWLKITIPNAFIGSDVVDWLYHNVEGFTDRREARKYASNLLKAGFIRHTVNKITFSEQCYYIFGDLCGNMANLSLHDHDGSSGASDQDTLAPLPHPGAAPWPMAFPYQYPPPPHPYNPHPGFPELGYSYGGGSASSQHSEGSRSSGSNRSGSDRRKEKDPKAGDSKSGGSGSESDHTTRSSLRGPRERAPSERSGPAASEHSHRSHHSLASSLRSHHTHPSYGPPGVPPLYGPPMLMMPPPPAAMGPPGAPPGRDLASVPPELTASRQSFRMAMGNPSEFFVDVM
B6: N-acetyltransferase 8 (Homo sapiens), Q9UHE5 (parent)
chain: MAPCHIRKYQESDRQWVVGLLSRGMAEHAPATFRQLLKLPRTLILLLGGPLALLLVSGSWLLALVFSISLFPALWFLAKKPWTEYVDMTLCTDMSDITKSYLSERGSCFWVAESEEKVVGMVGALPVDDPTLREKRLQLFHLFVDSEHRRQGIAKALVRTVLQFARDQGYSEVILDTGTIQLSAMALYQSMGFKKTGQSFFCVWARLVALHTVHFIYHLPSSKVGSL
partner: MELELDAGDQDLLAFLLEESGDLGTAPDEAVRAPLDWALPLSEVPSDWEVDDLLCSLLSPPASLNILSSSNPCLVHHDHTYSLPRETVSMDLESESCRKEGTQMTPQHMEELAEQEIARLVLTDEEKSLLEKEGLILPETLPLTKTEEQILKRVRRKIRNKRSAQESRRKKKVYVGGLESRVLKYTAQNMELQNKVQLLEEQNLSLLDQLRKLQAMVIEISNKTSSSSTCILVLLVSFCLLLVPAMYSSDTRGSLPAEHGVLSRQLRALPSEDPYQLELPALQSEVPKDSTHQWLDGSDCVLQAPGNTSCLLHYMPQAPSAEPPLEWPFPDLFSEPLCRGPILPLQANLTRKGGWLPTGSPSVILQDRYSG
B7: Tripartite motif-containing protein 59 (Homo sapiens), Q8IWR1 (parent)
chain: MHNFEEELTCPICYSIFEDPRVLPCSHTFCRNCLENILQASGNFYIWRPLRIPLKCPNCRSITEIAPTGIESLPVNFALRAIIEKYQQEDHPDIVTCPEHYRQPLNVYCLLDKKLVCGHCLTIGQHHGHPIDDLQSAYLKEKDTPQKLLEQLTDTHWTDLTHLIEKLKEQKSHSEKMIQGDKEAVLQYFKELNDTLEQKKKSFLTALCDVGNLINQEYTPQIERMKEIREQQLELMALTISLQEESPLKFLEKVDDVRQHVQILKQRPLPEVQPVEIYPRVSKILKEEWSRTEIGQIKNVLIPKMKISPKRMSCSWPGKDEKEVEFLKILNIVVVTLISVILMSILFFNQHIITFLSEITLIWFSEASLSVYQSLSNSLHKVKNILCHIFYLLKEFVWKIVSH
partner: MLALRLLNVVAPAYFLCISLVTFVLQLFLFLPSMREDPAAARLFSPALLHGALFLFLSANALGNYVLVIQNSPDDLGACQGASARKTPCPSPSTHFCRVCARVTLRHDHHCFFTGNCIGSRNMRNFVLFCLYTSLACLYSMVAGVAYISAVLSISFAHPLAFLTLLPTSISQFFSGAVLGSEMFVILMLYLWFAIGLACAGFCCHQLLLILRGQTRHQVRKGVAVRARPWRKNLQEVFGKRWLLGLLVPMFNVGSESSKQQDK
B8: Macrophage scavenger receptor types I and II (Homo sapiens), P21757 (parent)
chain: MEQWDHFHNQQEDTDSCSESVKFDARSMTALLPPNPKNSPSLQEKLKSFKAALIALYLLVFAVLIPLIGIVAAQLLKWETKNCSVSSTNANDITQSLTGKGNDSEEEMRFQEVFMEHMSNMEKRIQHILDMEANLMDTEHFQNFSMTTDQRFNDILLQLSTLFSSVQGHGNAIDEISKSLISLNTTLLDLQLNIENLNGKIQENTFKQQEEISKLEERVYNVSAEIMAMKEEQVHLEQEIKGEVKVLNNITNDLRLKDWEHSQTLRNITLIQGPPGPPGEKGDRGPTGESGPRGFPGPIGPPGLKGDRGAIGFPGSRGLPGYAGRPGNSGPKGQKGEKGSGNTLTPFTKVRLVGGSGPHEGRVEILHSGQWGTICDDRWEVRVGQVVCRSLGYPGVQAVHKAAHFGQGTGPIWLNEVFCFGRESSIEECKIRQWGTRACSHSEDAGVTCTL
partner: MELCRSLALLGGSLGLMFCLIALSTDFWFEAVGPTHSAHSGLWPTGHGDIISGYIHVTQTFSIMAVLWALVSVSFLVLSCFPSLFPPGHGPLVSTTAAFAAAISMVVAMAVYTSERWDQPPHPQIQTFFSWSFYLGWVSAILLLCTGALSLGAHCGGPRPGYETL

Variants of: B1
Details: with ei2ba_human EIF2B1, Q14232
ei2ba_human EIF2B1, Q14232, sequence (Q14232 whole entry): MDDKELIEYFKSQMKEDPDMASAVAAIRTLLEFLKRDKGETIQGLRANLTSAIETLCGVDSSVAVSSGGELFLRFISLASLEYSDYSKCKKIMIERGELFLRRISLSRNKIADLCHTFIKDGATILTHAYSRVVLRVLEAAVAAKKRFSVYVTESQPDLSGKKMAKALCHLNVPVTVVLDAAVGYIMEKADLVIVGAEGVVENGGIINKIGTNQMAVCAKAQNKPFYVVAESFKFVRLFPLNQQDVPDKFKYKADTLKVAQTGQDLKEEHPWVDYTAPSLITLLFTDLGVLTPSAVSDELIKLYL

Row | Variant | effect of a mutation on the interaction
1 | R167K | with no effect

Variants of: B2
Details: with mad3_human MXD3, Q9BW11

Row | Variant | effect of a mutation on the interaction
2 | A115T | with no effect
3 | R74Q | with no effect

Variants of: B3
Details: with marh2_human MARCHF2, Q9P0N8

Row | Variant | effect of a mutation on the interaction
4 | E108K | with no effect

Variants of: B4
Details: with ppl13_human LGALS14, Q8TCE9

Row | Variant | effect of a mutation on the interaction
5 | N119D | with no effect
6 | A24V | with no effect

Variants of: B5
Details: with kat7_human KAT7, O95251
kat7_human KAT7, O95251, sequence (O95251 whole entry): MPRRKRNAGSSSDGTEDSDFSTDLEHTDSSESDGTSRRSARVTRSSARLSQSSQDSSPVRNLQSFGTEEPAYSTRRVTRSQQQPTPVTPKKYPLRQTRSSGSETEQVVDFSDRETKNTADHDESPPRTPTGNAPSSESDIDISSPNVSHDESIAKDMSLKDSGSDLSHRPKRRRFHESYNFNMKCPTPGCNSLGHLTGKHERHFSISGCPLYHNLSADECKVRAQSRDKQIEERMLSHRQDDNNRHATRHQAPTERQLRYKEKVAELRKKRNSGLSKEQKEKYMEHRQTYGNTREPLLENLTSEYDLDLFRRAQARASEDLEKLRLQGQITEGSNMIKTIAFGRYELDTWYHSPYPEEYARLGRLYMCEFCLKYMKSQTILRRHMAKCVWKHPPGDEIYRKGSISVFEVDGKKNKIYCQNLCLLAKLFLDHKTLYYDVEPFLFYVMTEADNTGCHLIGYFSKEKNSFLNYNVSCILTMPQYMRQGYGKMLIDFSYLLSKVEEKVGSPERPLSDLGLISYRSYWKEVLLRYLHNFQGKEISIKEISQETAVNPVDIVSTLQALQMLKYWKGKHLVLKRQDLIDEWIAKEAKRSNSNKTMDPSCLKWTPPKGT

Row | Variant | effect of a mutation on the interaction
7 | R216T | with no effect

Variants of: B6
Details: with creb3_human CREB3, O43889

Row | Variant | effect of a mutation on the interaction
8 | F143S | with no effect

Variants of: B7
Details: with zdh22_human ZDHHC22, Q8N966

Row | Variant | effect of a mutation on the interaction
9 | I277V | with no effect

Variants of: B8
Details: with nkg7_human NKG7, Q16617

Row | Variant | effect of a mutation on the interaction
10 | V113A | with no effect
11 | P275A | with no effect
